Data as given in US12673108B2 (Oxford University Innovation Limited, priority 2021, dated 2026).
Square brackets hold non-standard residues; d marks the D form. Ends that are not written are not given here. Ahx = NCCCCCC(=O)O; βAla = NCCC(=O)O

Key:
[1] = test system: dystrophin; details: in vivo; cited from earlier work
[2] = Toxicological assessment of peptide-PMO (urinary KIM-1, NGAL; serum BUN); assay type: in vivo, C57BL/6 mice; details: for urinary KIM-1 levels: single dose 30 mg/kg (2.5-50 mg/kg); for urinary KIM-1 levels / urinary NGAL levels: urine Day 2 and Day 7, normalised to urinary creatinine; for urinary NGAL levels: single dose 30 mg/kg
Method: Female C57BL/6 mice aged 8-10 weeks were administered a single 30 mg/kg dose of peptide-PMO in 0.9% saline by bolus intravenous tail vein injection. Urine was non-invasively collected under chilled conditions at Day 2 and Day 7 post-administration following 20 hours housing in metabolic cages (Tecniplast, UK). Serum was collected from jugular vein at Day 7 at necropsy, as was tibialis anterior, diaphragm and heart tissue.
The same procedure was followed at different single dosage amounts ranging from 2.5 mg/kg up to 50 mg/kg of peptide-PMO in 0.9% saline by intravenous tail vein injection.
Urinary levels of KIM-1 (Kidney injury molecule-1) and NGAL (Neutrophil Gelatinase-Associated Lipocalin) were quantified by ELISA (KIM-1 R&D cat #MKM100, NGAL R&D cat #MLCN20) following appropriate dilution of urine to fit standard curves. Values were normalised to urinary creatinine levels that were quantified at MRC Harwell Institute, Mary Lyon Centre, Oxfordshire, UK. Serum blood urea nitrogen levels were quantified at MRC Harwell Institute, Mary Lyon Centre, Oxfordshire, UK.
All levels were quanitifed on an AU680 Clinical Chemistry Analyser, Beckman Coulter. Quantification of exon skipping efficacy was determined by quantitative RT-PCR of exon 23 skipped and unskipped transcripts and expressed as percentage of skipped versus total (skipped and unskipped) transcripts (see Table 7 for sequences).

[3] = fmoc spps; Fmoc-beta-Ala-OH preloaded Wang resin (0.19 or 0.46 mmol g-1); PyBOP/NMM; PyBOP/HOAt/DIPEA (or HBTU) for PMO conjugation; details: conjugation step, UV-Vis, based on PMO extinction coefficient, scale 10 pmol or 100 pmol (so in the source)
[4] = test system: human hepatocytes; assay: Hepatocyte cell viability (fluorescent-based assay); details: 40 uM
Method: Immortalized myoblasts from healthy individual or DM1 patient with 2600 CTG repeats were cultivated in a growth medium consisting of a mix of M199: DMEM (1:4 ratio; Life technologies) supplemented with 20% FBS (Life technologies), 50 µg/ml gentamycin (Life technologies), 25 pg/ml fetuin, 0.5 ng/ml bFGF, 5 ng/ml EGF and 0.2 pg/ml dexamethasone (Sigma-Aldrich). Myogenic differentiation was induced by switching confluent cell cultures to DMEM medium supplemented with 5 pg/ml insulin (Sigma-Aldrich) for myoblasts. For treatment, WT or DM1 cells are differentiated for 4 days. Then, medium was changed with fresh differentiation medium with peptide-PMOs at a 1, 2, 5 10, 20 or 40 pM concentration. Cells were harvested for analysis 48 h after treatment. Cell viability was quantified in after 2 days of transfection of peptide-PMOs at 40 uM in human hepatocytes or at a 1, 2, 5 10, 20 or 40 pM concentration in human myoblasts using a fluorescent-based assay (Promega).

[5] = Recovery times of mice after injection with peptide-PMOCAG7 conjugates; assay type: in vivo, C57BL6 mice; details: 12.5 mg/kg; HSA-LR mice; age 8-12 weeks
Method: Animal experiments and ASO injections. Experiments were carried out in the University of Oxford according to UK legislation. The intravenous injections in HSA-LR C57BL/6 mice were performed by single or repeated administrations via the tail vein. Doses of 30, 12.5, 7.5 and 5 mg/kg of peptide-PMO-CAG7 (SEQ ID NO: 192) were diluted in 0.9% saline and given at a volume of 5-6 pL/g of body weight. KIM-1 levels in C57BL6 female mice measured by ELISA (R&D cat #MKM100) with samples diluted to fit within standard curve. Values were normalised to urinary creatinine levels (Harwell) to account for urine protein concentration.

eteplirsen
levels of dystrophin restoration [1]: approximately 1 % of normal dystrophin levels

Pip9b2 (Ac-R[Ahx]RR[βAla]RRFQILYR[βAla]R[Ahx]R[βAla]; also: PMO conjugate, site not given here) [reference compound]
Serum blood urea nitrogen levels ([2]; 7 days after single dose of 30 mg/kg): elevated

Ac-RBRRBRRFQILYRBHBH-(Ab)-PMO (GGCCAAACCTCGGCTTACCTGAAAT; listed as DNA, chemistry not fully specified)
conjugation yield [3]: 26%

Ac-RBRRBRFQILYBRBR-(E)-PMO (GGCCAAACCTCGGCTTACCTGAAAT; peptide Ac-RBRRBRFQILYBRBR-(E) conjugated, chemistry not fully specified)
conjugation yield [3]: 39%

DPEP 3.8 (Ac-R[βAla]RR[βAla]RFQILYR[βAla]H[βAla]H[βAla]; also: PMO conjugate, site not given here)
urinary KIM-1 levels [2]: lowest levels | urinary NGAL levels [2]: lowest levels

DPEP 1.9 (Ac-R[βAla]RR[βAla]RFQILY[βAla]R[βAla]R[βAla]; also: PMO conjugate, site not given here)
urinary KIM-1 levels [2]: lowest levels | urinary NGAL levels [2]: lowest levels

pip6a: prior peptide carrier AC-RXRRBRRXR-YQFLI-RXRBRXR-B conjugated to [CAG]7 PMO (SEQ ID NO: 192) (Ac-R[Ahx]RR[βAla]RR[Ahx]RYQFLIR[Ahx]R[βAla]R[Ahx]R[βAla]; also: conjugated to [CAG]7 PMO, site not given here) [reference compound]
percentage hepatocyte cell viability [4]: cell mortality | Recovery time after injection, Time AV ± SD [5]: >60 min
